Assay results taken from the supplement of paper PMC9170038.

Tested on: MS2 coat protein
Test: apparent KD of MS2 coat protein; designed switch direction (-1 OFF switch, 1 ON switch): -1; higher = weaker reporter binding
Method in brief: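 Apparent KD, taken as the median over clusters for each design, was obtained by curve-fitting normalised cluster fluorescence. Designed RNA switches had been transcribed on Illumina chips by stalled E. coli RNA polymerase and titrated with SNAP-549-labelled MS2 coat protein, doubling from 0.7 or 1.5 nM to 3 µM.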

[1] = Eterna round: R95, input ligand: FMN 200 uM
[2] = Eterna round: R95, input ligand: microRNA oligo, concentration not stated
[3] = Eterna round: R95, input ligand: none
[4] = input ligand: microRNA oligo, concentration not stated

| Sequence | apparent KD of MS2 coat protein [1] [nM] | apparent KD of MS2 coat protein [2] [nM] | apparent KD of MS2 coat protein [3] [nM] | apparent KD of MS2 coat protein (input ligand: FMN 200 uM) [nM] | apparent KD of MS2 coat protein [4] [nM] | apparent KD of MS2 coat protein (input ligand: none) [nM] |
| --- | --- | --- | --- | --- | --- | --- |
| AAAAAACAUGAGGAUCACCCAUGUCAGGAUAUCCGCGAAGGAAAGAAAAAAAAAAAAGGGAGAAGGGACAAAAA [April's Ex-date #4] (puzzle: Exclusion 1) | 49.5 | 52.8 | 28.5 |  |  |  |
| AAAAAGCGAGGAUAUACAUGAGGAUCACCCAUGUGAGGGCACCGCGGGCGCGGGACCGGUAGAAGGCGCAAAAA [Exc;s3-II] (puzzle: Exclusion 3) | 33.6 | 24.1 | 38.5 |  |  |  |
| AAAACAAACGAAGGAUAUGCAACCCGGCGGUACGCAGAAGGUCGAAAGAUUUUCAUUCUACAUGAGGAUCACCCAUGUACGGGC [Leange] (Eterna round: R96, puzzle: Exclusion NG 1) |  |  |  | 48.5 | 39.7 | 52.3 |
| AAAACAAGCAUAAGAUCCCACAUGAGGAUCACCCAUGUGCUCGUCUUAUAAAAGGUUUCGACGAAAACGUCGAGACC [Eli 91 v30] (Eterna round: R97, puzzle: Sensor, turn-off variant 1) |  |  |  | 29.6 |  | 29.6 |
| AAAACACAUGAGGAUCACCCAUGUGAGGAUAUGUCCAUGCUCGGCAAACCGGGCAUGGACAGAAGGCACAUAAA [JR_Exclusion1_Sub015] (puzzle: Exclusion 1) |  | 40.3 |  |  |  |  |
| AAAACACAUGAGGAUCACCCAUGUGAGGAUAUGUUAAUUUUAAUGAAAAUUAAAAUUAACAGAAGGCACAGAAA [JR_Exclusion1_Sub024] (puzzle: Exclusion 1) | 46.3 | 45.6 | 54.2 |  |  |  |
| AAAAGAAAACGAGGAUAUGCGCGUAACGUACAUCCUCUAGACAUGAGGAUCACCCAUGUAGCGCAGCAGAAGGCGUAAAAGAAA [Orises] (Eterna round: R96, puzzle: Exclusion NG 2) |  |  |  | 724 | 75 | 84.3 |
| AAAAGAAUAAAAGGAUAUAGGAAAGGAAGUGUACUAGAAGGUUUGUUAACAUGAGGAUCACCCAUGUGCUCAGACACAGGGUGC [PowerStrip EXNG 1.3] (Eterna round: R96, puzzle: Exclusion NG 1) |  |  |  |  | 91.5 |  |
| AAAAGCUAAGGAUAUACAUGAGGAUCACCCAUGUACACCGGUACGGGUGCGAACUCCUGUAGAAGGUGGGAUAA [Atatlege] (puzzle: Exclusion 3) |  | 121 |  |  |  |  |
| AAAAGGACAGGAUAUUCGACUCGCAACAUGAGGAUCACCCAUGUGGUCGUCCAGUCGCUCGAAGAAGGGUUAAAAC [Cegeesbe] (puzzle: Exclusion 5) | 74.7 | 26.7 | 31.3 |  |  |  |
| AAAAGUUUUCAGGAUAUGUGCGAUUAAUAUCGUGCAGAAGGGAGGACAUGAGGAUCACCCAUGUUGAAGACAAC [Omei Ex6 A18] (Eterna round: R97, puzzle: Exclusion 6) |  |  |  | 66.1 |  | 80.2 |
| AAAAUACAUGAGGAUCACCCAUGUUAGGAUAUGCAAAGCCCAGUUAGCUUUUGGGUAGGUAGAAGGGACGGGUA [Reenen] (puzzle: Exclusion 1) |  | 21.5 |  |  |  |  |
| AAAAUGUCAGGAUAUACGAAACAAAACAAAACAAAACAAAAGUAGAAGGGACAUGAGGAUCACCCAUGUAAGAA [Exclusion 4 #2] (puzzle: Exclusion 4) | 49.6 | 24.1 | 32.5 |  |  |  |
| AAACCCUGAGGAUAUGCAUAACAACAAAGCCUCACGUGCCAACAUGAGGAUCACCCAUGUAGAAGGCGGGCCAA [Mod R3 Insanara 18 - Jieux - Exclusion 2] (Eterna round: R97, puzzle: Exclusion 2) |  |  |  | 24.3 |  | 15.7 |
| AAACCUAGUCUAGGAUAUGGUGAGAGUUUGUCGGUGAGUACAUGAGGAUCACCCAUGUACGCUUGCUAGAAGGAGACAGGCUCG [Eternabot solution 37] (Eterna round: R96, puzzle: Exclusion NG 2) |  |  |  | 13.7 | 11.5 | 14.6 |
| AAACCUGCCCAUGACCGCAAGCUUUUUGCUUGUCUUACCACAUGAGGAUCACCCAUGUGGCAUGGGCUCCUUAUAAA [Xemave] (puzzle: Sensor v3, turn-off variant 2) | 14.2 | 11.8 | 11.7 |  |  |  |

| Sequence | apparent KD of MS2 coat protein [1] [nM] | apparent KD of MS2 coat protein [2] [nM] | apparent KD of MS2 coat protein [3] [nM] | apparent KD of MS2 coat protein (input ligand: FMN 200 uM) [nM] | apparent KD of MS2 coat protein [4] [nM] | apparent KD of MS2 coat protein (input ligand: none) [nM] |
| --- | --- | --- | --- | --- | --- | --- |
| AAACGGGUGUCCUCGUUUUCAACAUGAGGAUCACCCAUGUUCGAGGAUAUCCGAUAAGCUCUUCAGGAGAAGGCGAACAUAAAA [Eninenat] (Eterna round: R96, puzzle: Exclusion NG 3) |  |  |  | 14.7 | 32.1 | 18.4 |
| AAAGAAACAUGAGGAUCACCCAUGUCUGAUCCAAUGUUUAGUCAGGAUAUGCGUCCGACUUCGGAGCAGAAGGGAUACAGGUAG [Anlaanma] (Eterna round: R96, puzzle: Exclusion NG 3) |  |  |  | 125 | 357 | 356 |
| AAAGAGCUAGGAUAUCGCGACCUUGACAUGAGGAUCACCCAUGUGCCCUCGUAACAACGACGAGAAGGAGCGAAAA [Gelaladied] (puzzle: Exclusion 5) | 36.2 | 16.8 | 19.9 |  |  |  |
| AAAGGGUCAGGAUAUCCUGUGAAGAAGAAGUUGUUGUCGCGGGAGAAGGGACAUGAGGAUCACCCAUGUAGAGC [A Simple Submission] (Eterna round: R97, puzzle: Exclusion 4) |  |  |  | 52.9 |  | 53.6 |
| AAAGUGUAAGGAUAUCCGAAAAGCGAGCGAAAGCGAGCGAAGGAGAAGGUACAUGAGGAUCACCCAUGUAAGGG [AK-MS2ROC-r4-exclusion4-11.5] (Eterna round: R97, puzzle: Exclusion 4) |  |  |  | 215 |  | 961 |
| AAAGUGUCAGGAUAUUGUUAGUUUAGUUGUUUGUAUUAGUUCGAGAAGGGACAUGAGGAUCACCCAUGUUGUAA [Ex4 #64] (Eterna round: R97, puzzle: Exclusion 4) |  |  |  | 24.5 |  | 32.2 |
| AAAGUUCGAGGAUAUCUACUUAGCUACAUGAGGAUCACCCAUGUUAUCCUCCCGCUGGGAAGAGAAGGCGGUUAAA [Xeonceso] (Eterna round: R96, puzzle: Exclusion 5) |  |  |  | 138 | 27.1 | 34.1 |
| AAAGUUCGAGGAUAUCUACUUAGCUACAUGAGGAUCACCCAUGUUAUCCUCCCGCUGGGAAGAGAAGGCGGUUAAA [Xeonceso] (puzzle: Exclusion 5) | 186 | 41.7 | 41.7 |  |  |  |
| AAAUAACAAGCAGGAUCCUACAUGAGGAUCACCCAUGUGCUCGUCUUAUAAAGUACUAUCACGAAAGUGAUAGUACA [Sensor 3, v1 - 14] (puzzle: Sensor v3, turn-off variant 1) | 434 | 84.6 | 363 |  |  |  |
| AAAUAACAAGCGAGAUCCUACAUGAGGAUCACCCAUGUGCUCGUCUUAAGAAGUACUAUCACGAAAGUGAUAGUACA [Mat - Sensor v3 - turn-off var 1 - Eli Mod - D68] (puzzle: Sensor v3, turn-off variant 1) | 17.6 | 66 | 14.7 |  |  |  |
| AAAUAGCUAGAGGAUAUCGGAUAGGAUUUACUACGAGAAGGUUAGACAUGAGGAUCACCCAUGUUGUGUUGGGA [EX6 #19] (Eterna round: R97, puzzle: Exclusion 6) |  |  |  | 59.6 |  | 67.9 |
| AAAUCGGAGGAGGAUAUGGUACAGGAAAUGGUGCCAGAAGGUUUCACAUGAGGAUCACCCAUGUCAAAUAGCGA [EX6 #60] (Eterna round: R97, puzzle: Exclusion 6) |  |  |  | 19.1 |  | 27.1 |
| AAAUCGGUAGAGGAUAUUGUACAGGAAACGGUGCAAGAAGGUUGCACAUGAGGAUCACCCAUGUUAAAUUGCGA [EX6 #51] (Eterna round: R97, puzzle: Exclusion 6) |  |  |  | 39.4 |  | 38.8 |
| AAAUGACAUUAGGAUAUAUAACGCGGCUGCCGCAUAGAAGGGAUGACUUGAGGAUCACCCAAGUGACCCAAGGA [Arcere] (Eterna round: R97, puzzle: Exclusion 6) |  |  |  | 28.2 |  | 30.8 |
| AAAUGUGCGAGAGGAUAUCGUGUACAAAGUACACGAGAAGGCUUCACAUGAGGAUCACCCAUGUACCGAGGUGAAACACCUUGA [Omei Exc(NG)1 Bv4] (Eterna round: R96, puzzle: Exclusion NG 1) |  |  |  | 599 | 149 | 198 |
